The record followed here is patent US7993884B2, “Beta-xylosidase for conversion of plant cell wall carbohydrates to simple sugars” (The United States of America as represented by the …, priority 2006, dated 2011).

Usually Km stands for the substrate concentration at which the rate is half of its maximum. For orientation: kcat means the number of substrate molecules converted per active site and unit of time at saturation.

Values joined by “and” are separate entries in the source; they are usually repeats but may differ in a detail not shown here. Equal values may be shown once. Read-outs that look alike come from different tables or passages of the source.

Substrate in data set [1]: O=[N+]([O-])c1ccc(O[C@@H]2OC[C@@H](O)[C@H](O)[C@H]2O)cc1
Put plainly: purified protein, by the assay type. The class given is biochemical, Selenomonas ruminantium GA192. Particulars: other: untreated control SXA, pH 7.0, 25° C.

Substrate in data set [2]: O=[N+]([O-])c1ccc(O[C@@H]2O[C@@H](CO)[C@H](O)[C@H]2O)cc1
Put plainly: purified protein, by the assay type. The class given is biochemical, Selenomonas ruminantium GA192. The following applies: other: pH 5.3, 25° C.

Substrate in data set [3]: O=[N+]([O-])c1ccc(O[C@@H]2OC[C@@H](O)[C@H](O)[C@H]2O)cc1
Put plainly: purified protein, by the assay type. It counts as biochemical, Selenomonas ruminantium GA192. Particulars: other: pH 5.3, 25° C. An excerpt:
Determination of Inhibition Constants

Substrate in data set [4]: O=[N+]([O-])c1ccc(O[C@@H]2OC[C@@H](O)[C@H](O)[C@H]2O)cc1
Put plainly: purified protein, by the assay type. The following applies: […].
Protocol: Kinetics with 4NP Substrates
(§1) Two methods were employed for determining initial rates. […] Initial rates were calculated from fitting the absorbance readings versus time to a line (minimum of 4 points per reaction progression) and by using an extinction coefficient of 17.4 mM^−1 cm^−1. In Method B (continuous monitoring), temperature-equilibrated reactions (1 mL) were monitored at 380 nm (for pH values below 6) or 400 nm (for pH values of 6 and above). Reactions were generally monitored 0.3 min for initial rate determinations. Delta extinction coefficients (product-substrate) used for molar conversion were determined by subtracting the absorbance of substrate (at pH 5 so even very minor contaminating 4NP would not contribute) from the absorbance of 4NP for each reaction condition. […] The concentration of 4NP substrates was determined by incubating the substrate with excess enzyme until an end point was reached, adding an aliquot (0.01 to 0.1 mL) to 0.1 M NaOH, recording the absorbance at 400 nm and using the extinction coefficient of 18.3 cm^−1mM^−1. Unless indicated otherwise, for both Methods A and B, reactions were initiated by adding a small aliquot of enzyme (generally 7 μl of enzyme diluted into 10 mM sodium phosphate, pH 7.0, and incubated on wet ice or at ˜25° C.) to the 1-mL, temperature-equilibrated (25° C.) reaction mixtures. For pH studies, buffers of constant ionic strength (I=0.3 M), adjusted with NaCl, were used as indicated: 100 mM succinate-NaOH (pH 4.3-6), 100 mM sodium phosphate (pH 6-8), 30 mM sodium pyrophosphate (pH 8-9), glycine-NaOH (pH 9) and glycylglycine-NaOH (pH 9).

Substrate in data set [5]: O=[N+]([O-])c1ccc(O[C@@H]2OC[C@@H](O[C@@H]3OC[C@@H](O)[C@H](O)[C@H]3O)[C@H](O)[C@H]2O)cc1
Put plainly: purified protein, by the assay type. The following applies: other: 100 mM sodium phosphate, pH 7.0, 25° C, first step (4NPX2 to 4NPX+D-xylose), not well determined, pH 7.0.
Protocol: (§2) Samples (25 μL) were injected onto the column equilibrated with 0.1 M NaOH and developed with a 15-min linear gradient (0.1 M NaOH to 15 mM sodium acetate) at ˜25° C. and a flow rate of 1 mL min^−1.
(§3) Before (time=0 min) and after (time=1-6 min) initiating reactions with enzyme (7 μL), samples (0.05-0.1 mL) were removed and quenched with an equal volume of 0.5 M acetic acid and frozen. Following lyophilization, samples were dissolved in H2O and analyzed by HPLC. […] Results from two replicate reactions were combined to provide data points for the progress curves.
(§4) Before and after addition of enzyme (7 μL), 25-μl aliquots of the reaction mixtures were directly injected onto the HPLC column for quantification of product L-arabinose.
(§5) Quenched samples were analyzed by HPLC for D-xylose. Initial rates were determined from linear regressions of [D-xylose] produced versus reaction time. […] Four 1-mL replicate reactions were conducted to supply data points for the progress curves. Two parallel reactions were conducted, under the same conditions with the same reaction components, the absorbance at 400 nm was continuously monitored (20 min) for 4NP production, and the absorbance values were converted to mM 4NP concentrations by using a delta extinction coefficient (product-substrate) of 8.22 mM^−1 cm^−1.

Substrate in data set [6]: O=[N+]([O-])c1ccc(O[C@@H]2O[C@@H](CO)[C@H](O)[C@H]2O)cc1
Briefly: purified protein, by the assay type.
Protocol: Kinetics with 4NP Substrates
as §1

Substrate in data set [7]: OC1OC[C@@H](O[C@@H]2OC[C@@H](O)[C@H](O)[C@H]2O)[C@H](O)[C@H]1O
Put plainly: purified protein, by the assay type. Particulars: other: 100 mM succinate-NaOH, pH 5.3, 25° C.

Substrate in data set [8]: OC1OC[C@@H](O[C@@H]2OC[C@@H](O[C@@H]3OC[C@@H](O)[C@H](O)[C@H]3O)[C@H](O)[C@H]2O)[C@H](O)[C@H]1O
Briefly: purified protein, by the assay type. Particulars: for Km: other: 100 mM succinate-NaOH, pH 5.3, 25° C.

Substrate in data set [9]: OC1OC[C@@H](O[C@@H]2OC[C@@H](O[C@@H]3OC[C@@H](O[C@@H]4OC[C@@H](O)[C@H](O)[C@H]4O)[C@H](O)[C@H]3O)[C@H](O)[C@H]2O)[C@H](O)[C@H]1O
Briefly: purified protein, by the assay type. Particulars: other: 100 mM succinate-NaOH, pH 5.3, 25° C.

Substrate in data set [10]: OC1OC[C@@H](O[C@@H]2OC[C@@H](O[C@@H]3OC[C@@H](O[C@@H]4OC[C@@H](O[C@@H]5OC[C@@H](O)[C@H](O)[C@H]5O)[C@H](O)[C@H]4O)[C@H](O)[C@H]3O)[C@H](O)[C@H]2O)[C@H](O)[C@H]1O
Briefly: purified protein, by the assay type. The following applies: other: 100 mM succinate-NaOH, pH 5.3, 25° C.

Substrate in data set [11]: OC1OC[C@@H](O[C@@H]2OC[C@@H](O[C@@H]3OC[C@@H](O[C@@H]4OC[C@@H](O[C@@H]5OC[C@@H](O[C@@H]6OC[C@@H](O)[C@H](O)[C@H]6O)[C@H](O)[C@H]5O)[C@H](O)[C@H]4O)[C@H](O)[C@H]3O)[C@H](O)[C@H]2O)[C@H](O)[C@H]1O
Put plainly: purified protein, by the assay type. The following applies: for Km: other: 100 mM succinate-NaOH, pH 5.3, 25° C.

Substrate in data set [12]: OC[C@@H]1O[C@@H](OC[C@@H]2OC(O)[C@H](O)[C@H]2O)[C@H](O)[C@H]1O
Briefly: purified protein, by the assay type. Particulars: other: 100 mM succinate-NaOH, pH 5.3, 25° C, pH 5.3.
Protocol: as §2, §3, §4, §5

For data set [13], the target named is T1, SXA (Selenomonas ruminantium, UniProt O52575). The method, then: Initial rates were determined by monitoring reactions continuously at 400 nM for 0.3 min. […] Relative activity remaining data were fitted to equation 3, which describes a first order decay: A is the relative activity remaining at varied times of preincubation, A0 is the relative activity remaining at time zero of the preincubation, kobs is the first order rate constant, and t is the time of preincubation. Apparent affinities for D-xylose and D-glucose were determined by fitting kobs values from the monosaccharide protection studies to equation 4 where kobs is the observed first order rate constant for the decay, k0 is the first order rate constant in the absence of ligand (e.g., D-xylose), I is the ligand concentration in the preincubation mixture, and Ki is the dissociation constant of ligand from the enzyme-ligand complex.
Ligand protection studies contained varied concentrations of D-xylose or D-glucose in the pH 5.3 preincubation buffer at 55° C.

A short description of data set [14]: Isoelectric focusing of native SXA. It counts as physicochemical. The following applies: IEF pH 3-10 gel.
Data set [15] concerns the target T1, SXA. Put plainly: pH stability of SXA and protection from low pH inactivation at pH 4.0 by monosaccharides.
Protocol: Buffers of constant ionic strength (I=0.3 M), adjusted with NaCl, were used as indicated: 100 mM succinate-NaOH (pH 3.5-6), 100 mM sodium phosphate (pH 6-8), 30 mM sodium pyrophosphate (pH 8-9), and 100 mM glycine-NaOH (pH 9-10). […] Initial rates were determined by monitoring reactions continuously at 400 nM for 0.3 min. […] Relative activity remaining data were fitted to equation 3, which describes a first order decay: A is the relative activity remaining at varied times of preincubation, A0 is the relative activity remaining at time zero of the preincubation, kobs is the first order rate constant, and t is the time of preincubation. Apparent affinities for D-xylose and D-glucose were determined by fitting kobs values from the monosaccharide protection studies to equation 4 where kobs is the observed first order rate constant for the decay, k0 is the first order rate constant in the absence of ligand (e.g., D-xylose), I is the ligand concentration in the preincubation mixture, and Ki is the dissociation constant of ligand from the enzyme-ligand complex.
Where [16] appears, read: D-xylose α:β ratio 1:2.5 experiment.
The mark [17] stands for this setting: D-xylose α:β ratio 6:1 experiment.
[18] abbreviates: 4NP inhibition experiment, HPLC.
[19] abbreviates: other: 100 mM MES-NaOH, pH 6.00, 25° C, Method B, 50% sucrose, η/ηo 6.85, pH 6.0.
Setting [20] is: other: 100 mM MES-NaOH, pH 6.00, 25° C, Method B, η/ηo 1.00, pH 6.0.
Where [21] appears, read: other: 100 mM sodium phosphate, pH 7.0, 25° C, Method B, second step (4NPX to 4NP+D-xylose), pH 7.0.
Setting [22] is: other: pH 5.3, 25° C (Example 1), approximate, pH 5.3.

B1: Selenomonas ruminantium GA192 β-D-xylosidase (SXA), wild type, SEQ ID NO: 2 (Pseudoselenomonas ruminantium) (protein)
chain: MNIQNPVLKGFNPDPSIVRAGDDYYIATSTFEWFPGVQIHHSKDLVHWHLVAHPLSTTEFLDMKGNPDSGGIWAPDLSYADGKFWLIYTDVKVVDGMWKDCHNYLTTAEDIKGPWSKPILLNGAGFDASLFHDPSGKKYLVNMYWDQRVYHHNFYGIALQEYSVAEEKLIGKPEIIYKGTDIAYTEGPHLYYINDMYYLMTAEGGTTYQHSETIARSKTIHGPYEIQPDYPLLSAWKEVHNPLQKCGHASLVETQNGQWYLAHLTGRPLPAPAGFPSREREQHAFCPLGRETAIQKIEWQDGWPVVVGGQQGSLEVEAPDLPQQEWAPTYEERDDFDKDTLNINFQTLRIPFSEHLGSLTARPGFLRLYGRESLQSKFTQAHIARRWQSFNFDAGTSVEFSPNSFQQMAGLTCYYNTENWSSIHVTWNEEKGRIIDLVTADNGTFSMPLAGAEIPIPDEVKTVHFKVSVRGRIYQYAYSFDGETFHTLPIELPSWKLSDDYVRGGGFFTGAFVGINAIDITGTALPADFDYFTYKELD
B1: the Km was 380 ± 5 µM in data set [1]; 900 ± 13 µM in data set [2] (setting [16]); 880 ± 130 µM in data set [2] (setting [17]); 758 ± 59 µM in [3] (setting [18]); 716 ± 32 µM in [3] (D-xylose inhibition experiment); 637 ± 81 µM in data set [4] (setting [19]). Moreover, the Km in data set [4] (setting [20]) stood at 699 ± 35 µM; in data set [4] (setting [21]) it was 443 ± 8 µM; in [4] (other: pH 5.3, 25° C, Method A, 50% sucrose, η/ηo 6.12, pH 5.3), 690 ± 35 µM; in data set [5] it was 690 ± 430 µM; in [6] (setting [19]), 754 ± 101 µM; in data set [6] (setting [20]), 745 ± 36 µM. Also, the Km in data set [6] (other: 100 mM succinate-NaOH, pH 5.3, 25° C, Method A, no sucrose, pH 5.3) worked out at 810 ± 50 µM; in data set [7], 2060 ± 80 µM; in data set [7] (pH 5.3) it was 4200 ± 500 µM; in [8], 2120 ± 100 µM; in data set [8] (pH 5.3), 3800 ± 600 µM; in data set [9], 2750 ± 230 µM. Moreover, the Km was 4000 ± 300 µM in data set [9] (pH 5.3); 2860 ± 380 µM in data set [10]; 3700 ± 600 µM in data set [10] (pH 5.3); 3120 ± 210 µM in [11]; 2700 ± 500 µM in data set [11] (pH 5.3); 1200 ± 100 µM in [12]. Besides, the kcat amounted to 12.2 ± 0.05 s⁻¹ in [1]; 2.79 ± 0.01 s⁻¹ in data set [2] (setting [16]); 2.78 ± 0.01 s⁻¹ in [2] (setting [17]); 26.7 ± 1.1 s⁻¹ in data set [3] (setting [18]); 32.1 ± 0.5 s⁻¹ in [3] (D-xylose inhibition experiment); 16.2 ± 0.09 s⁻¹ in data set [4] (setting [21]). For the same molecule, the kcat in data set [5] was found to be 50.5 ± 25.7 s⁻¹; in data set [6] (other: pH profile, I=0.3 M, Method B) it was 3.25 ± 0.05 s⁻¹; in [8] (setting [22]), 170 s⁻¹; in [11] (setting [22]), 100 s⁻¹.

B2: SXA: β-D-xylosidase (E.C. 3.2.1.37) of Selenomonas ruminantium GA192, glycoside hydrolase family 43, GenBank AAB97967, SEQ. ID No. 2 (protein)
chain: MNIQNPVLKGFNPDPSIVRAGDDYYIATSTFEWFPGVQIHHSKDLVHWHLVAHPLSTTEFLDMKGNPDSGGIWAPDLSYADGKFWLIYTDVKVVDGMWKDCHNYLTTAEDIKGPWSKPILLNGAGFDASLFHDPSGKKYLVNMYWDQRVYHHNFYGIALQEYSVAEEKLIGKPEIIYKGTDIAYTEGPHLYYINDMYYLMTAEGGTTYQHSETIARSKTIHGPYEIQPDYPLLSAWKEVHNPLQKCGHASLVETQNGQWYLAHLTGRPLPAPAGFPSREREQHAFCPLGRETAIQKIEWQDGWPVVVGGQQGSLEVEAPDLPQQEWAPTYEERDDFDKDTLNINFQTLRIPFSEHLGSLTARPGFLRLYGRESLQSKFTQAHIARRWQSFNFDAGTSVEFSPNSFQQMAGLTCYYNTENWSSIHVTWNEEKGRIIDLVTADNGTFSMPLAGAEIPIPDEVKTVHFKVSVRGRIYQYAYSFDGETFHTLPIELPSWKLSDDYVRGGGFFTGAFVGINAIDITGTALPADFDYFTYKELD
modifications: selenomonas ruminantium
For B2, in the data set with SXA [13], the “temperature up to which the enzyme is stable” value was “up to 55 °C”. Also, the “kobs, first-order inactivation rate constant of SXA” value with SXA [13] (pH 5.3, 55° C., absence of monosaccharide (0 mM)) was 0.0252 ± 0.0020 min⁻¹ and 0.0256 ± 0.0015 min⁻¹; with SXA [15] (pH 4.0, 25° C., absence of monosaccharide (0 mM)), 0.0784 ± 0.0023 min⁻¹ and 0.0518 ± 0.0037 min⁻¹. Also, the isoelectric point result in [14] is on record as “approximately 4.4”. In addition, the “pH below which SXA is unstable” value with SXA [15] was “below 4.1”.
